Laboratory results: patent US20220204583A1 (published 2022)

B1: VLR-Fc-46 (Fc fusion)
chain: ACPSQCSCSGTTVDCSGKSLASVPTGIPTTTRWLHLHRNQLTKLEPGVFDSLTQLTYLNLGGNQLTALPVGVFDKLTNLKELKLYSNQLQALSEGLFDRLGKLQHLDLSKNQLKSIPHGAFDRLSSLTHAYLFGNPWDCECRDIMYLRNWVADHTSIVMRWDGKAVNDPDSAKCAGTNTPVRAVTEASTSPSKCPGYVAT
B2: VLR-Fc-11 (Fc fusion)
chain: ACPSQCSCSGTEVRCESRSLASVPAGIPTTTRRLHLHRNQLTKLEPGVFDSLTQLTYLNLGGNQLTALPVGVFDKLTNLKELKLYSNQLQALSEGLFDRLGKLQHLDLSKNQLKSIPHGAFDRLSSLTHAYLFGNPWDCECRDIMYLRNWVADHTSIVMRWDGKAVNDPDSAKCAGTNTPVRAVTEASTSPSKCPGYVAT
B3: VLR-Fc-30 (Fc fusion)
chain: ACPSQCSCSGTTVDCSGKSLASVPTGIPTTTQILRLYRNQITKLEPGVFDSLTQLTYLNLGGNQLTALPVGVFDKLTNLKELKLYSNQLQALSEGLFDRLGKLQHLDLSKNQLKSIPHGAFDRLSSLTHAYLFGNPWDCECRDIMYLRNWVADHTSIVMRWDGKAVNDPDSAKCAGTNTPVRAVTEASTSPSKCPGYVAT

Molecular target: MBECs (cultured cells)
Assay: equilibrium titration on cultured MBECs; apparent affinity

Binder | Kd
B1 | 68.2 nM
B2 | 10.4 nM
B3 | 5.4 nM
